The target in assay [1] is bovine submaxillary mucin (BSM), TAG-72-positive (bovine). The assay can be described thus: radiolabeled antibody bound to BSM beads.
Assay [2] shares this target. In words: relative affinity constant, competition RIA on BSM, Scatchard analysis.
The target is the same in assay [3]. The assay can be described thus: competition RIA, 125I-labeled nCC49 as competitor, BSM as target antigen. Also on record: unit not given here.

Where “and” joins values, the source holds several entries; their conditions need not be identical. Equal entries are not always repeated. Where only a bound is given, the exact number is not on record here.

B1: HuCC49* humanized CC49 monoclonal antibody (antibody, V domains shown)
VH: QVQLVQSGAEVVKPGASVKISCKASGYTFTDHAIHWVKQNPGQRLEWIGYFSPGNDDFKYNERFKGKATLTADTSASTAYVELSSLRSEDTAVYFCTRSLNMAYWGQGTLVTVSS
VL: DIVMSQSPDSLAVSLGERVTLNCKSSQSLLYSGNQKNYLAWYQQKPGQSPKLLIYWASARESGVPDRFSGSGSGTDFTLTISSVQAEDVAVYYCQQYYSYPLTFGAGTKLELK
With B1, the percent bound in assay [1] is > 85% and 85%. Further, the Ka in assay [2] was 6e+07 M⁻¹. For the same molecule, in assay [3], the amount required for 50% competition was determined as 45.

Source of the values: patent publication US6495137.
